Like-named read-outs stand apart in the source and are kept apart here.
How the values were obtained:
[1] = biological target: the molecule itself; assay: single-molecule photobleaching steps
[2] = biological target: microtubules (MTs), individual (UniProt P68363); assay: single-molecule TIRF microscopy
[3] = biological target: microtubules (MTs), individual (UniProt P68363); assay: single-molecule TIRF microscopy; remark: listed apart in the source
[4] = biological target: microtubules (MTs), individual (UniProt P68363); assay: single-molecule TIRF microscopy; remark: listed apart in the source
SEC = biological target: the molecule itself; assay: SEC
[5] = biological target: the molecule itself; assay: negative stain electron microscopy

microtubules (MTs), individual, sequence (P68363 whole entry, chain 1 of 2): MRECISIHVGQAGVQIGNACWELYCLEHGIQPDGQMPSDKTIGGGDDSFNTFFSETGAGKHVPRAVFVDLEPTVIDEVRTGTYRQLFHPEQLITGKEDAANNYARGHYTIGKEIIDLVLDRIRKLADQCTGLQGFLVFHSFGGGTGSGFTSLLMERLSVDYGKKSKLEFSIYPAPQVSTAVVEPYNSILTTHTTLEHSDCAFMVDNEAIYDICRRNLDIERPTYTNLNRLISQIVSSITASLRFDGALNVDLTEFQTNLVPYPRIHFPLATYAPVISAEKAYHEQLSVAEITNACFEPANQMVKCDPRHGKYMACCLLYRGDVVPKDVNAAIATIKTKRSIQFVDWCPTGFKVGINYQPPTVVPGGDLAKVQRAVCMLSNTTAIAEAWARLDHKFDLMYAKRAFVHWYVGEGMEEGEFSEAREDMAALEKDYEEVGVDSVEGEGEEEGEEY
microtubules (MTs), individual, sequence (P07437 whole entry, chain 2 of 2, further chain): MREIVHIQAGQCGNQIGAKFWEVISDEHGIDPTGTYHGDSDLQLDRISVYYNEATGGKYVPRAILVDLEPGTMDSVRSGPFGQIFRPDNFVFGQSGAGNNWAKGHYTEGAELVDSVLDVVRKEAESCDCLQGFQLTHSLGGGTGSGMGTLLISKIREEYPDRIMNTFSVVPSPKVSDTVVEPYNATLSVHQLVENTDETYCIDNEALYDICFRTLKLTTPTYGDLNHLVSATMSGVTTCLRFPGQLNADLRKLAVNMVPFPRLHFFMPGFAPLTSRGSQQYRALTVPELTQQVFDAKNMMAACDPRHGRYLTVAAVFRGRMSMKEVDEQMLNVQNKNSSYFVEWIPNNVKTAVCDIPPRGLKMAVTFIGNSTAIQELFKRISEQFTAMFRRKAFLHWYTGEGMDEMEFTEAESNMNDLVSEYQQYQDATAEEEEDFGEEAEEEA

B1: GFP-Kif15-FL (full-length Kif15, Kinesin-12) (natural protein, UniProt Q9NS87 1-1388, looked up)
chain: MAPGCKTELRSVTNGQSNQPSNEGDAIKVFVRIRPPAERSGSADGEQNLCLSVLSSTSLRLHSNPEPKTFTFDHVADVDTTQESVFATVAKSIVESCMSGYNGTIFAYGQTGSGKTFTMMGPSESDNFSHNLRGVIPRSFEYLFSLIDREKEKAGAGKSFLCKCSFIEIYNEQIYDLLDSASAGLYLREHIKKGVFVVGAVEQVVTSAAEAYQVLSGGWRNRRVASTSMNRESSRSHAVFTITIESMEKSNEIVNIRTSLLNLVDLAGSERQKDTHAEGMRLKEAGNINRSLSCLGQVITALVDVGNGKQRHVCYRDSKLTFLLRDSLGGNAKTAIIANVHPGSRCFGETLSTLNFAQRAKLIKNKAVVNEDTQGNVSQLQAEVKRLKEQLAELASGQTPPESFLTRDKKKTNYMEYFQEAMLFFKKSEQEKKSLIEKVTQLEDLTLKKEKFIQSNKMIVKFREDQIIRLEKLHKESRGGFLPEEQDRLLSELRNEIQTLREQIEHHPRVAKYAMENHSLREENRRLRLLEPVKRAQEMDAQTIAKLEKAFSEISGMEKSDKNQQGFSPKAQKEPCLFANTEKLKAQLLQIQTELNNSKQEYEEFKELTRKRQLELESELQSLQKANLNLENLLEATKACKRQEVSQLNKIHAETLKIITTPTKAYQLHSRPVPKLSPEMGSFGSLYTQNSSILDNDILNEPVPPEMNEQAFEAISEELRTVQEQMSALQAKLDEEEHKNLKLQQHVDKLEHHSTQMQELFSSERIDWTKQQEELLSQLNVLEKQLQETQTKNDFLKSEVHDLRVVLHSADKELSSVKLEYSSFKTNQEKEFNKLSERHMHVQLQLDNLRLENEKLLESKACLQDSYDNLQEIMKFEIDQLSRNLQNFKKENETLKSDLNNLMELLEAEKERNNKLSLQFEEDKENSSKEILKVLEAVRQEKQKETAKCEQQMAKVQKLEESLLATEKVISSLEKSRDSDKKVVADLMNQIQELRTSVCEKTETIDTLKQELKDINCKYNSALVDREESRVLIKKQEVDILDLKETLRLRILSEDIERDMLCEDLAHATEQLNMLTEASKKHSGLLQSAQEELTKKEALIQELQHKLNQKKEEVEQKKNEYNFKMRQLEHVMDSAAEDPQSPKTPPHFQTHLAKLLETQEQEIEDGRASKTSLEHLVTKLNEDREVKNAEILRMKEQLREMENLRLESQQLIEKNWLLQGQLDDIKRQKENSDQNHPDNQQLKNEQEESIKERLAKSKIVEEMLKMKADLEEVQSALYNKEMECLRMTDEVERTQTLESKAFQEKEQLRSKLEEMYEERERTSQEMEMLRKQVECLAEENGKLVGHQNLHQKIQYVVRLKKENVRLAEETEKLRAENVFLKEKKRSES
- stoichiometry N [1]: 2
- dwell time [2]: 1.9 s
- dwell time [3]: 12.2 s
- dwell time [4]: 4 s

B2: Kif15-N700 (C-terminally truncated Kif15) (domain or fragment, UniProt Q9NS87 1-700, looked up)
chain: MAPGCKTELRSVTNGQSNQPSNEGDAIKVFVRIRPPAERSGSADGEQNLCLSVLSSTSLRLHSNPEPKTFTFDHVADVDTTQESVFATVAKSIVESCMSGYNGTIFAYGQTGSGKTFTMMGPSESDNFSHNLRGVIPRSFEYLFSLIDREKEKAGAGKSFLCKCSFIEIYNEQIYDLLDSASAGLYLREHIKKGVFVVGAVEQVVTSAAEAYQVLSGGWRNRRVASTSMNRESSRSHAVFTITIESMEKSNEIVNIRTSLLNLVDLAGSERQKDTHAEGMRLKEAGNINRSLSCLGQVITALVDVGNGKQRHVCYRDSKLTFLLRDSLGGNAKTAIIANVHPGSRCFGETLSTLNFAQRAKLIKNKAVVNEDTQGNVSQLQAEVKRLKEQLAELASGQTPPESFLTRDKKKTNYMEYFQEAMLFFKKSEQEKKSLIEKVTQLEDLTLKKEKFIQSNKMIVKFREDQIIRLEKLHKESRGGFLPEEQDRLLSELRNEIQTLREQIEHHPRVAKYAMENHSLREENRRLRLLEPVKRAQEMDAQTIAKLEKAFSEISGMEKSDKNQQGFSPKAQKEPCLFANTEKLKAQLLQIQTELNNSKQEYEEFKELTRKRQLELESELQSLQKANLNLENLLEATKACKRQEVSQLNKIHAETLKIITTPTKAYQLHSRPVPKLSPEMGSFGSLYTQNSSILDNDILN
- stoichiometry N (SEC): 2

B3: GFP-HSET (kinesin-14 HSET) (natural protein, UniProt Q9BW19 1-673, looked up)
chain: MDPQRSPLLEVKGNIELKRPLIKAPSQLPLSGSRLKRRPDQMEDGLEPEKKRTRGLGATTKITTSHPRVPSLTTVPQTQGQTTAQKVSKKTGPRCSTAIATGLKNQKPVPAVPVQKSGTSGVPPMAGGKKPSKRPAWDLKGQLCDLNAELKRCRERTQTLDQENQQLQDQLRDAQQQVKALGTERTTLEGHLAKVQAQAEQGQQELKNLRACVLELEERLSTQEGLVQELQKKQVELQEERRGLMSQLEEKERRLQTSEAALSSSQAEVASLRQETVAQAALLTEREERLHGLEMERRRLHNQLQELKGNIRVFCRVRPVLPGEPTPPPGLLLFPSGPGGPSDPPTRLSLSRSDERRGTLSGAPAPPTRHDFSFDRVFPPGSGQDEVFEEIAMLVQSALDGYPVCIFAYGQTGSGKTFTMEGGPGGDPQLEGLIPRALRHLFSVAQELSGQGWTYSFVASYVEIYNETVRDLLATGTRKGQGGECEIRRAGPGSEELTVTNARYVPVSCEKEVDALLHLARQNRAVARTAQNERSSRSHSVFQLQISGEHSSRGLQCGAPLSLVDLAGSERLDPGLALGPGERERLRETQAINSSLSTLGLVIMALSNKESHVPYRNSKLTYLLQNSLGGSAKMLMFVNISPLEENVSESLNSLRFASKVNQCVIGTAQANRK
- stoichiometry N [5]: 2
